Assay results: paper PMC11096021

Key:
[1] = target: A/Perth/16/2009 H3 trimer (for structural studies) (influenza A virus A/Perth/16/2009 (H3N2)); experiment: crystal structure
[2] = target: A/Perth/16/2009 H3 trimer (for structural studies) (influenza A virus A/Perth/16/2009 (H3N2)); experiment: cryo-EM structure
[3] = target: A/Michigan/45/2015 H1 trimer (for structural studies) (influenza A virus A/Michigan/45/2015 (H1)); experiment: cryo-EM structure

Substance | stoichiometry N [1] | stoichiometry N [2] | stoichiometry N [3]
A/Perth/16/2009 H3 trimer (for structural studies) (natural protein) | 3 | 3 | –
A/Michigan/45/2015 H1 trimer (for structural studies) (natural protein) | – | – | 3
